The values below come from patent US6740739B1, “Substitutional variants of APO-2 ligand” (Genentech, Inc., priority 1998, dated 2004).

What all share (assay type): cell-based, human
In assay [1] the test system is B lymphocytes. Briefly: Apoptosis by FACS in peripheral blood B cells. The conditions noted are these: Apo-2 ligand 3 μg/ml, 3 days, mean ±SE. The protocol:
Peripheral blood mononuclear cells (“PBMC&”) were isolated from the blood of human donors by Ficoll density gradient centrifugation using Lymphocyte Separation Medium (LSM®, Organon Teknika). An isolated population of T cells was prepared from the PBMC by removal of B cells through surface Ig binding to an anti-Ig column and removal of monocytes through Fc receptor binding to an Ig column (R & D Systems). An isolated population of B cells was prepared from the PBMC by complement-mediatedelimination of T cells reacted with the anti-CD3 antibody produced by the OKT3 myeloma (ATCC, CRL 8001) and of monocytes reacted with a monocyte-specific antibody produced by the 4F2C13 hybridoma (ATCC, HB 22). Additional monocyte removal was accomplished by adherence to plastic.
The freshly isolated peripheral blood B or T cells (1×10^6 cells/well) were cultured for 3 days in the presence of a media control or Apo-2 ligand (3 μg/ml, prepared as described in Example 3). […] Apoptosis was determined using FACS analysis essentially as described above in Example 4. […] The results are shown in Table 2 below, representing means ±SE of independent experiments [B lymphocytes—9 experiments; T lymphocytes—8 experiments; T lymphocytes plus IL-2-5 experiments], in which 50,000 cells were analyzed per data point. […]
On the technique in general: Flow cytometry measures light scatter and fluorescence of single cells or particles in a stream.

Assay [2] deals with HeLa. Briefly: Cell viability by crystal violet staining. On the procedure:
(§1) The following human tumor cell lines were assayed: A549 (lung carcinoma, ATCC CCL 185); HCT116 (colon carcinoma, ATCC CCL 247); SW480 (colon adenocarcinoma, ATCC CCL 228); MDA231 (breast adenocarcinoma, ATCC HTB 26); HeLa (cervical carcinoma, ATCC CCL 22); ME-180 (cervical carcinoma, ATCC HTB 33); T24 (bladder carcinoma. ATCC HTB 4); SK-N-AS (neuroblastoma, White et al., Proc. Natl. Acad. Sci., 92:5520-5524 (1995)). The cells were plated at 2.5×10^5 cells/ml in 96 well plates and incubated overnight. The cells were cultured in the presence of 2-fold dilutions of Apo-2 ligand (ranging from 100 ng/ml to 0.01 ng/ml). In some of the cultures, a chemotherapeuticagent was also added for 24 hours-cyclohexamide (“CHX”) (50 μg/ml; Sigma Chemicals), Doxorubicin (10-100 μg/ml; Pharmacia), or 5-FU (6 mg/ml; Roche).
(§2) After 24 hours of incubation, the cells were stained with 0.5% crystal-violetin 20% methanol. Cell viability was determined by eluting the dye from the stained cells with 0.1M sodium citrate (0.1M citric acid in 50% methanol), and measuring absorbance at 540 nm.

Assay [3] has as its system SK-N-AS. Description: Cell viability by crystal violet staining. As to conditions: SK-N-AS neuroblastoma, p53 ?; 24 h. On the procedure: as §1, §2

B1: Apo-2L: purified soluble His10-tagged human Apo-2 ligand, residues 114-281, from baculovirus-infected Sf9 cells (Example 3); used in Examples 4-14 (protein)
chain: MGHHHHHHHHHHSSGHIDDDDKHMVRERGPQRVAAHITGTRGRSNTLSSPNSKNEKALGRKINSWESSRSGHSFLSNLHLRNGELVIHEKGFYYIYSQTYFRFQEEIKENTKNDKQMVQYIYKYTSYPDPILLMKSARNSCWSKDAEYGLYSIYQGGIFELKENDRIFVSVTNEHLIDMDHEASFFGAFLVG
With B1, the “% apoptolic cells” value in assay [1] (LPS 1 μg/ml, control 44.8 ± 2.8, a=p<0.05) is 55.9 ± 3.2^a %; in assay [1] (treatment none, control 40.1 ± 4.1, a=p<0.05), 53.2 ± 3.3^a %. In addition, the “Apo-2L SENSITIVITY” value is on record as “+ (>35% death after 24 h with 100 ng/ml Apo-2)” in assay [2] (HeLa cervical carcinoma, p53 mut, 24 h) and “+ (>35% death after 24 h with 100 ng/ml Apo-2)” in assay [3]. The “Apo-2L sensitivity ENHANCED BY CHX” value in assay [2] (HeLa, cyclohexamide 50 μg/ml, 24 hours) is reported as “yes”.
